Assay results reported in PMC6513524, “Production and characterization of novel ssRNA bacteriophage virus-like particles from metagenomic sequencing data” (Journal of Nanobiotechnology, 2019).

Key:
[1] = molecular target: AVE018 coat protein (ssRNA phage AVE018 (metagenomic sequence)); test: non-reducing SDS-PAGE; purified VLPs in 20 mM Tris-HCl pH 8.0, 50% glycerol mixed with Laemmli buffer with or without 5% 2-mercaptoethanol, 10 min at 95 °C, 15% gel; disulfide-linked CP oligomers
[2] = molecular target: NFZC01007443 coat protein (ssRNA phage NFZC01007443 (metagenomic sequence)); test: as above

AVE018 coat protein (natural protein)
stoichiometry N [1]: 2

NFZC01007443 coat protein (natural protein)
stoichiometry N [2]: 5
